First the molecules themselves.
B1: DNAJC10 (DNAJ (HSP40) HOMOLOG, SUBFAMILY C, MEMBER 10) (other)
chain: DQDFYSLLGVSKTASSREIRQAFKKLALKLHPDKNPNNPNAHGDFLKINRAYEVLKDEDLRKKYDKYGEKGLEDNQGGQYESWNYYRYDFGIYDDDPEIITLERREFDAAVNSGELWFVNFYSPGCSHCHDLAPTWRDFAKEVDGLLRIGAVNCGDDRMLCRMKGVNSYPSLFIFRSGMAPVKYHGDRSKESLVSFAMQHVRSTVTELWTGNFVNSIQTAFAAGIGWLITFCSKGGDCLTSQTRLRLSGMLDGLVNVGWMDCATQDNLCKSLDITTSTTAYFPPGATLNNKEKNSILFLNSLDAKEIYLEVIHNLPDFELLSANTLEDRLAHHRWLLFFHFGKNENSNDPELKKLKTLLKNDHIQVGRFDCSSAPDICSNLYVFQPSLAVFKGQGTKEYEIHHGKKILYDILAFAKESVNSHVTTLGPQNFPANDKEPWLVDFFAPWCPPCRALLPELRRASNLLYGQLKFGTLDCTVHEGLCNMYNIQAYPTTVVFNQSNIHEYEGHHSAEQILEFIEDLMNPSVVSLTPTTFNELVTQRKHNEVWMVDFYSPWCHPCQVLMPEWKRMARTLTGLINVGSIDCQQYHSFCAQENVQRYPEIRFFPPKSNKAYHYHSYNGWNRDAYSLRIWGLGFLPQVSTDLTPQTFSEKVLQGKNHWVIDFYAPWCGPCQNFAPEFELLARMIKGKVKAGKVDCQAYAQTCQKAGIRAYPTVKFYFYERAKRNFQEEQINTRDAKAIAALISEKLETLRNQGKRNKDEL
notes: Endogenous protein in lysates of human UCB-derived megakaryocytes or HEK293 cells

The target of one assay is αIIb (INTEGRIN, ALPHA 2B; PLATELET GLYCOPROTEIN IIB OF IIB/IIIA COMPLEX, ANTIGEN CD41) (human) (UniProt P08514). Kind of assay: αIIb complexes captured, mass spectrometry; No. Expts 1.
For the molecule “CHAPERONIN CONTAINING TCP1, SUBUNIT 4 (DELTA) (from UniProt P50991 2-539)”, the #Peptides was determined as 8 peptides.

“ZINC FINGER PROTEIN 300 (from UniProt Q96RE9 1-604)” registered a #Peptides of 3 peptides. “KINESIN FAMILY MEMBER 14 (from UniProt Q15058 1-1648)” displayed a #Peptides of 7 peptides. The same measure, in the same setting: with “SERPINE1 MRNA BINDING PROTEIN 1 (from UniProt Q8NC51 2-408)” the figure was 6 peptides.

“UDP-GLUCOSE PYROPHOSPHORYLASE 1 (from UniProt Q16851 1-508)” gave a #Peptides of 13 peptides. On the same count and under the same terms, with “PROTEIN PHOSPHATASE 1, REGULATORY (INHIBITOR) SUBUNIT 9A (from UniProt Q9ULJ8 1-1098)” the figure was 6 peptides; with … (from UniProt P02787 20-698), 7 peptides; with “PATCHED DOMAIN CONTAINING 2 (from UniProt Q9P2K9 1-1392)”, 2 peptides.

The molecule “SEMENOGELIN I (from UniProt P04279 24-462)” gave a #Peptides of 3 peptides. As to “HOMER HOMOLOG 3 (DROSOPHILA) (from UniProt Q9NSC5 1-361)”, the #Peptides is 1 peptides. “PROTEIN KINASE, AMP-…, BETA 1 NON-… SUBUNIT (from UniProt Q9Y478 2-270)” displayed a #Peptides of 9 peptides. On the same count and under the same terms, then LOC731751 (UNKNOWN PROTEIN), with 15 peptides; and “…, DSH HOMOLOG 2 (DROSOPHILA) (from UniProt O14641 1-736)”, with 3 peptides. Still for that read-out and setting: with “HEAT SHOCK 70 kDa PROTEIN 1A (from UniProt P0DMV8 2-641)” the figure was 15 peptides.

“MITOGEN-… PROTEIN KINASE KINASE KINASE 7 … PROTEIN 2 (from UniProt Q9NYJ8 1-693)” came in with a #Peptides of 2 peptides. On the same count and under the same terms, with “PDZ AND LIM DOMAIN 7 (ENIGMA) (from UniProt Q9NR12 1-457)” the figure was 2 peptides; with “GLUCO… AER61 (from UniProt Q5NDL2 18-527)”, 3 peptides; with “EUKARYOTIC ELONGATION FACTOR-2 KINASE (from UniProt O00418 2-725)”, 4 peptides.

Another assay shares this target. Kind of assay: αIIb complexes captured, mass spectrometry; No. Expts 2.
The molecule “ALDEHYDE DEHYDROGENASE 18 FAMILY, MEMBER A1 (from UniProt P54886 1-795)” had a #Peptides of 16 peptides. On the same count and under the same terms, with “HETEROGENEOUS NUCLEAR RIBONUCLEOPROTEIN L (from UniProt P14866 1-589)” the figure was 26 peptides; with “5′-NUCLEOTIDASE DOMAIN CONTAINING 2 (from UniProt Q9H857 1-520)”, 34 peptides. With “TUBULIN, BETA (from UniProt P07437 1-444)”, the #Peptides turned out to be 52 peptides. Still for that read-out and setting: with “DYNAMIN BINDING PROTEIN (from UniProt Q6XZF7 1-1577)” the figure was 30 peptides; with “HEAT SHOCK 70 kDa PROTEIN 8 (from UniProt P11142 2-646)”, 11 peptides; with “CHAPERONIN CONTAINING TCP1, SUBUNIT 2 (BETA) (from UniProt P78371 2-535)”, 20 peptides. On the same count and under the same terms, with “DEAH (ASP-GLU-ALA-HIS) BOX PO… 15 (from UniProt O43143 1-795)” the figure was 68 peptides; with “FILAMIN A, ALPHA (ACTIN BINDING PROTEIN 280) (from UniProt P21333 2-2647)”, 14 peptides.

For the next assay the target is unchanged. The experiment in a line: αIIb complexes captured, mass spectrometry; No. Expts 3.
Turning to “GLUTAMATE DEHYDROGENASE 1 (from UniProt P00367 54-558)”, the #Peptides came to 83 peptides.

KIAA1529 (from UniProt Q9P1Z9 1-1701) came in with a #Peptides of 62 peptides.

With “SHROOM3 F-ACTIN BINDING PROTEIN (from UniProt Q8TF72 1-1996)”, the #Peptides amounted to 7 peptides. On the same count and under the same terms, then “PLASMINOGEN (from UniProt P00747 20-810)”, with 22 peptides; and “THIOREDOXIN DOMAIN CONTAINING 4 (ENDOPLASMIC RETICULUM) (from UniProt Q9BS26 30-406)”, with 20 peptides.

For a further assay the target is unchanged. Kind of assay: αIIb complexes captured, mass spectrometry; No. Expts 4.
As to “ASPARTYL-TRNA … (from UniProt P14868 1-501)”, the #Peptides was determined as 65 peptides.

The next assay deals with T1, mature αIIbβ3 complex (human, UniProt P08514 32-887; P08514 891-1039; P05106 27-788).
T1 construct: Endogenous, from megakaryocyte lysates
Kind of assay: co-immunoprecipitation with conformation-specific mAb M148, immunoblot for DNAJC10. A general note: Immunoblotting shows a protein as a band on a membrane.
Regarding B1, the binding result is “no binding”.

A further assay concerns the target αIIbβ3 (human) (UniProt P08514). Kind of assay: antibody staining of UCB-derived megakaryocytes, after thrombin receptor-activating peptide.
In turn, “PAC1, an activation-dependent, ligand-mimetic anti-αIIbβ3 monoclonal antibody” showed a percentage of UCB cells recognized of 16%.

For a further assay the target is unchanged. The experiment in a line: antibody staining of UCB-derived megakaryocytes, before thrombin receptor-activating peptide.
Consider “PAC1, an activation-dependent, ligand-mimetic anti-αIIbβ3 monoclonal antibody”, for which the percentage of UCB cells recognized amounted to 3%.
